Test results published in patent US20260152730A1.

Columns and labels:
[1] = target: insulin receptor isoform-A (IR-A); experiment: competitive ELISA on IR-A; cold ligand 1-500 nM against 0.8 nM biotinylated insulin
[2] = target: domain 11 of the CI-M6P/IGF2R; experiment: competitive ELISA on domain 11 of CI-M6P/IGF2R; cold ligand 1-500 nM against 8 nM biotinylated IGF2

## IGF2 peptide carrying a mutation of AA 1-6 (Δ1-6.IGF2 peptide) (from UniProt P01344) (ligand)
[1]
  IC50: 0.00161 µM
[2]
  IC50: 0.00501 µM

## IDS.IGF2 (construct 2): IDS tagged C-terminally with aa 1, 8-67 of the mature human IGF2 (from UniProt P22304)
[1]
  IC50: 0.251 µM
  fold lower affinity than Δ1-6.IGF2 peptide: 150 fold
[2]
  IC50: 0.0617 µM
  times increased IC50 against Δ1-6.IGF2 peptide: 12.3 times
